Data: US20260070987A1

molecular target: equine FcRn (large alpha subunit p51) / equine beta-2-microglobulin complex, biotinylated (equine) (UniProt P30441); experiment: SPR (Biacore), pH 6
UniProt P30441, sequence (P30441 21-118, one chain of several): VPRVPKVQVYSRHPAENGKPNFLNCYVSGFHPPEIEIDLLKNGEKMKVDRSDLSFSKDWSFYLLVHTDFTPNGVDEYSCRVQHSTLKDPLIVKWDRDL

| Binder | Kd [nM] |
| --- | --- |
| equine IgG1 Y436C (antibody, part only; not given: Variable domains, not shown: another chain or arm of the molecule) constant: ASTTAPKVFALAPGCGTTSDSTVALGCLVSGYFPEPVKVSWNSGSLTSGVHTFPSVLQSSGFYSLSSMVTVPASTWTSETYICNVVHAASNFKVDKRIEPIPDNHQKVCDMSKCPKCPAPELLGGPSVFIFPPNPKDTLMITRTPEVTCVVVDVSQENPDVKFNWYMDGVEVRTATTRPKEEQFNSTYRVVSVLRIQHQDWLSGKEFKCKVNNQALPQPIERTITKTKGRSQEPQVYVLAPHPDELSKSKVSVTCLVKDFYPPEINIEWQSNGQPELETKYSTTQAQQDSDGSYFLYSKLSVDRNRWQQGTTFTCGVMHEALHNHCTQKNVSKNPGK | 32.8 |
| equine IgG1 Y436T (antibody, part only; not given: variable domains, not shown: another chain or arm of the molecule) constant: ASTTAPKVFALAPGCGTTSDSTVALGCLVSGYFPEPVKVSWNSGSLTSGVHTFPSVLQSSGFYSLSSMVTVPASTWTSETYICNVVHAASNFKVDKRIEPIPDNHQKVCDMSKCPKCPAPELLGGPSVFIFPPNPKDTLMITRTPEVTCVVVDVSQENPDVKFNWYMDGVEVRTATTRPKEEQFNSTYRVVSVLRIQHQDWLSGKEFKCKVNNQALPQPIERTITKTKGRSQEPQVYVLAPHPDELSKSKVSVTCLVKDFYPPEINIEWQSNGQPELETKYSTTQAQQDSDGSYFLYSKLSVDRNRWQQGTTFTCGVMHEALHNHTTQKNVSKNPGK | 15.2 |
| equine IgG1 Y436H (antibody, part only; not given: variable domains, not shown: another chain or arm of the molecule) constant: ASTTAPKVFALAPGCGTTSDSTVALGCLVSGYFPEPVKVSWNSGSLTSGVHTFPSVLQSSGFYSLSSMVTVPASTWTSETYICNVVHAASNFKVDKRIEPIPDNHQKVCDMSKCPKCPAPELLGGPSVFIFPPNPKDTLMITRTPEVTCVVVDVSQENPDVKFNWYMDGVEVRTATTRPKEEQFNSTYRVVSVLRIQHQDWLSGKEFKCKVNNQALPQPIERTITKTKGRSQEPQVYVLAPHPDELSKSKVSVTCLVKDFYPPEINIEWQSNGQPELETKYSTTQAQQDSDGSYFLYSKLSVDRNRWQQGTTFTCGVMHEALHNHHTQKNVSKNPGK | 19.1 |
| equine IgG1 Y436S (antibody, part only; not given: Variable domains, not shown: another chain or arm of the molecule) constant: ASTTAPKVFALAPGCGTTSDSTVALGCLVSGYFPEPVKVSWNSGSLTSGVHTFPSVLQSSGFYSLSSMVTVPASTWTSETYICNVVHAASNFKVDKRIEPIPDNHQKVCDMSKCPKCPAPELLGGPSVFIFPPNPKDTLMITRTPEVTCVVVDVSQENPDVKFNWYMDGVEVRTATTRPKEEQFNSTYRVVSVLRIQHQDWLSGKEFKCKVNNQALPQPIERTITKTKGRSQEPQVYVLAPHPDELSKSKVSVTCLVKDFYPPEINIEWQSNGQPELETKYSTTQAQQDSDGSYFLYSKLSVDRNRWQQGTTFTCGVMHEALHNHSTQKNVSKNPGK | 13.5 |
| equine IgG1 Y436G (antibody, part only; not given: variable domains, not shown: another chain or arm of the molecule) constant: ASTTAPKVFALAPGCGTTSDSTVALGCLVSGYFPEPVKVSWNSGSLTSGVHTFPSVLQSSGFYSLSSMVTVPASTWTSETYICNVVHAASNFKVDKRIEPIPDNHQKVCDMSKCPKCPAPELLGGPSVFIFPPNPKDTLMITRTPEVTCVVVDVSQENPDVKFNWYMDGVEVRTATTRPKEEQFNSTYRVVSVLRIQHQDWLSGKEFKCKVNNQALPQPIERTITKTKGRSQEPQVYVLAPHPDELSKSKVSVTCLVKDFYPPEINIEWQSNGQPELETKYSTTQAQQDSDGSYFLYSKLSVDRNRWQQGTTFTCGVMHEALHNHGTQKNVSKNPGK | 22 |
| equine IgG1 Y436L (antibody, part only; not given: variable domains, not shown: another chain or arm of the molecule) constant: ASTTAPKVFALAPGCGTTSDSTVALGCLVSGYFPEPVKVSWNSGSLTSGVHTFPSVLQSSGFYSLSSMVTVPASTWTSETYICNVVHAASNFKVDKRIEPIPDNHQKVCDMSKCPKCPAPELLGGPSVFIFPPNPKDTLMITRTPEVTCVVVDVSQENPDVKFNWYMDGVEVRTATTRPKEEQFNSTYRVVSVLRIQHQDWLSGKEFKCKVNNQALPQPIERTITKTKGRSQEPQVYVLAPHPDELSKSKVSVTCLVKDFYPPEINIEWQSNGQPELETKYSTTQAQQDSDGSYFLYSKLSVDRNRWQQGTTFTCGVMHEALHNHLTQKNVSKNPGK | 12.4 |
| equine IgG1 Y436Q (antibody, part only; not given: variable domains, not shown: another chain or arm of the molecule) constant: ASTTAPKVFALAPGCGTTSDSTVALGCLVSGYFPEPVKVSWNSGSLTSGVHTFPSVLQSSGFYSLSSMVTVPASTWTSETYICNVVHAASNFKVDKRIEPIPDNHQKVCDMSKCPKCPAPELLGGPSVFIFPPNPKDTLMITRTPEVTCVVVDVSQENPDVKFNWYMDGVEVRTATTRPKEEQFNSTYRVVSVLRIQHQDWLSGKEFKCKVNNQALPQPIERTITKTKGRSQEPQVYVLAPHPDELSKSKVSVTCLVKDFYPPEINIEWQSNGQPELETKYSTTQAQQDSDGSYFLYSKLSVDRNRWQQGTTFTCGVMHEALHNHQTQKNVSKNPGK | 14.6 |
| equine IgG1 Y436N (antibody, part only; not given: variable domains, not shown: another chain or arm of the molecule) constant: ASTTAPKVFALAPGCGTTSDSTVALGCLVSGYFPEPVKVSWNSGSLTSGVHTFPSVLQSSGFYSLSSMVTVPASTWTSETYICNVVHAASNFKVDKRIEPIPDNHQKVCDMSKCPKCPAPELLGGPSVFIFPPNPKDTLMITRTPEVTCVVVDVSQENPDVKFNWYMDGVEVRTATTRPKEEQFNSTYRVVSVLRIQHQDWLSGKEFKCKVNNQALPQPIERTITKTKGRSQEPQVYVLAPHPDELSKSKVSVTCLVKDFYPPEINIEWQSNGQPELETKYSTTQAQQDSDGSYFLYSKLSVDRNRWQQGTTFTCGVMHEALHNHNTQKNVSKNPGK | 23.1 |
| equine IgG1 Y436M (antibody, part only; not given: variable domains, not shown: another chain or arm of the molecule) constant: ASTTAPKVFALAPGCGTTSDSTVALGCLVSGYFPEPVKVSWNSGSLTSGVHTFPSVLQSSGFYSLSSMVTVPASTWTSETYICNVVHAASNFKVDKRIEPIPDNHQKVCDMSKCPKCPAPELLGGPSVFIFPPNPKDTLMITRTPEVTCVVVDVSQENPDVKFNWYMDGVEVRTATTRPKEEQFNSTYRVVSVLRIQHQDWLSGKEFKCKVNNQALPQPIERTITKTKGRSQEPQVYVLAPHPDELSKSKVSVTCLVKDFYPPEINIEWQSNGQPELETKYSTTQAQQDSDGSYFLYSKLSVDRNRWQQGTTFTCGVMHEALHNHMTQKNVSKNPGK | 11.1 |
| equine IgG1 Y436D (antibody, part only; not given: variable domains, not shown: another chain or arm of the molecule) constant: ASTTAPKVFALAPGCGTTSDSTVALGCLVSGYFPEPVKVSWNSGSLTSGVHTFPSVLQSSGFYSLSSMVTVPASTWTSETYICNVVHAASNFKVDKRIEPIPDNHQKVCDMSKCPKCPAPELLGGPSVFIFPPNPKDTLMITRTPEVTCVVVDVSQENPDVKFNWYMDGVEVRTATTRPKEEQFNSTYRVVSVLRIQHQDWLSGKEFKCKVNNQALPQPIERTITKTKGRSQEPQVYVLAPHPDELSKSKVSVTCLVKDFYPPEINIEWQSNGQPELETKYSTTQAQQDSDGSYFLYSKLSVDRNRWQQGTTFTCGVMHEALHNHDTQKNVSKNPGK | 28.4 |
| equine IgG1 T286F (antibody, part only; not given: variable domains, not shown: another chain or arm of the molecule) constant: ASTTAPKVFALAPGCGTTSDSTVALGCLVSGYFPEPVKVSWNSGSLTSGVHTFPSVLQSSGFYSLSSMVTVPASTWTSETYICNVVHAASNFKVDKRIEPIPDNHQKVCDMSKCPKCPAPELLGGPSVFIFPPNPKDTLMITRTPEVTCVVVDVSQENPDVKFNWYMDGVEVRFATTRPKEEQFNSTYRVVSVLRIQHQDWLSGKEFKCKVNNQALPQPIERTITKTKGRSQEPQVYVLAPHPDELSKSKVSVTCLVKDFYPPEINIEWQSNGQPELETKYSTTQAQQDSDGSYFLYSKLSVDRNRWQQGTTFTCGVMHEALHNHYTQKNVSKNPGK | 18.5 |
| equine IgG1 Y436E (antibody, part only; not given: variable domains, not shown: another chain or arm of the molecule) constant: ASTTAPKVFALAPGCGTTSDSTVALGCLVSGYFPEPVKVSWNSGSLTSGVHTFPSVLQSSGFYSLSSMVTVPASTWTSETYICNVVHAASNFKVDKRIEPIPDNHQKVCDMSKCPKCPAPELLGGPSVFIFPPNPKDTLMITRTPEVTCVVVDVSQENPDVKFNWYMDGVEVRTATTRPKEEQFNSTYRVVSVLRIQHQDWLSGKEFKCKVNNQALPQPIERTITKTKGRSQEPQVYVLAPHPDELSKSKVSVTCLVKDFYPPEINIEWQSNGQPELETKYSTTQAQQDSDGSYFLYSKLSVDRNRWQQGTTFTCGVMHEALHNHETQKNVSKNPGK | 33.8 |
| equine IgG1 Y436K (antibody, part only; not given: variable domains, not shown: another chain or arm of the molecule) constant: ASTTAPKVFALAPGCGTTSDSTVALGCLVSGYFPEPVKVSWNSGSLTSGVHTFPSVLQSSGFYSLSSMVTVPASTWTSETYICNVVHAASNFKVDKRIEPIPDNHQKVCDMSKCPKCPAPELLGGPSVFIFPPNPKDTLMITRTPEVTCVVVDVSQENPDVKFNWYMDGVEVRTATTRPKEEQFNSTYRVVSVLRIQHQDWLSGKEFKCKVNNQALPQPIERTITKTKGRSQEPQVYVLAPHPDELSKSKVSVTCLVKDFYPPEINIEWQSNGQPELETKYSTTQAQQDSDGSYFLYSKLSVDRNRWQQGTTFTCGVMHEALHNHKTQKNVSKNPGK | 18 |
| equine IgG1 Y436R (antibody, part only; not given: variable domains, not shown: another chain or arm of the molecule) constant: ASTTAPKVFALAPGCGTTSDSTVALGCLVSGYFPEPVKVSWNSGSLTSGVHTFPSVLQSSGFYSLSSMVTVPASTWTSETYICNVVHAASNFKVDKRIEPIPDNHQKVCDMSKCPKCPAPELLGGPSVFIFPPNPKDTLMITRTPEVTCVVVDVSQENPDVKFNWYMDGVEVRTATTRPKEEQFNSTYRVVSVLRIQHQDWLSGKEFKCKVNNQALPQPIERTITKTKGRSQEPQVYVLAPHPDELSKSKVSVTCLVKDFYPPEINIEWQSNGQPELETKYSTTQAQQDSDGSYFLYSKLSVDRNRWQQGTTFTCGVMHEALHNHRTQKNVSKNPGK | 25.6 |
| equine IgG1 Y436F (antibody, part only; not given: variable domains, not shown: another chain or arm of the molecule) constant: ASTTAPKVFALAPGCGTTSDSTVALGCLVSGYFPEPVKVSWNSGSLTSGVHTFPSVLQSSGFYSLSSMVTVPASTWTSETYICNVVHAASNFKVDKRIEPIPDNHQKVCDMSKCPKCPAPELLGGPSVFIFPPNPKDTLMITRTPEVTCVVVDVSQENPDVKFNWYMDGVEVRTATTRPKEEQFNSTYRVVSVLRIQHQDWLSGKEFKCKVNNQALPQPIERTITKTKGRSQEPQVYVLAPHPDELSKSKVSVTCLVKDFYPPEINIEWQSNGQPELETKYSTTQAQQDSDGSYFLYSKLSVDRNRWQQGTTFTCGVMHEALHNHFTQKNVSKNPGK | 12.5 |
| equine IgG1 Y436I (antibody, part only; not given: variable domains, not shown: another chain or arm of the molecule) constant: ASTTAPKVFALAPGCGTTSDSTVALGCLVSGYFPEPVKVSWNSGSLTSGVHTFPSVLQSSGFYSLSSMVTVPASTWTSETYICNVVHAASNFKVDKRIEPIPDNHQKVCDMSKCPKCPAPELLGGPSVFIFPPNPKDTLMITRTPEVTCVVVDVSQENPDVKFNWYMDGVEVRTATTRPKEEQFNSTYRVVSVLRIQHQDWLSGKEFKCKVNNQALPQPIERTITKTKGRSQEPQVYVLAPHPDELSKSKVSVTCLVKDFYPPEINIEWQSNGQPELETKYSTTQAQQDSDGSYFLYSKLSVDRNRWQQGTTFTCGVMHEALHNHITQKNVSKNPGK | 7.84 |
